Assay results: IntAct's records for PubMed 35869491

B1: Spastin (Homo sapiens), Q9UBP0-1 (parent)
chain: MNSPGGRGKKKGSGGASNPVPPRPPPPCLAPAPPAAGPAPPPESPHKRNLYYFSYPLFVGFALLRLVAFHLGLLFVWLCQRFSRALMAAKRSSGAAPAPASASAPAPVPGGEAERVRVFHKQAFEYISIALRIDEDEKAGQKEQAVEWYKKGIEELEKGIAVIVTGQGEQCERARRLQAKMMTNLVMAKDRLQLLEKMQPVLPFSKSQTDVYNDSTNLACRNGHLQSESGAVPKRKDPLTHTSNSLPRSKTVMKTGSAGLSGHHRAPSYSGLSMVSGVKQGSGPAPTTHKGTPKTNRTNKPSTPTTATRKKKDLKNFRNVDSNLANLIMNEIVDNGTAVKFDDIAGQDLAKQALQEIVILPSLRPELFTGLRAPARGLLLFGPPGNGKTMLAKAVAAESNATFFNISAASLTSKYVGEGEKLVRALFAVARELQPSIIFIDEVDSLLCERREGEHDASRRLKTEFLIEFDGVQSAGDDRVLVMGATNRPQELDEAVLRRFIKRVYVSLPNEETRLLLLKNLLCKQGSPLTQKELAQLARMTDGYSGSDLTALAKDAALGPIRELKPEQVKNMSASEMRNIRLSDFTESLKKIKRSVSPQTLEAYIRWNKDFGDTTV

Variants of: B1
Conditions: with fxl17_human FBXL17, Q9UF56
Sequence of fxl17_human FBXL17, Q9UF56 (Q9UF56 whole entry): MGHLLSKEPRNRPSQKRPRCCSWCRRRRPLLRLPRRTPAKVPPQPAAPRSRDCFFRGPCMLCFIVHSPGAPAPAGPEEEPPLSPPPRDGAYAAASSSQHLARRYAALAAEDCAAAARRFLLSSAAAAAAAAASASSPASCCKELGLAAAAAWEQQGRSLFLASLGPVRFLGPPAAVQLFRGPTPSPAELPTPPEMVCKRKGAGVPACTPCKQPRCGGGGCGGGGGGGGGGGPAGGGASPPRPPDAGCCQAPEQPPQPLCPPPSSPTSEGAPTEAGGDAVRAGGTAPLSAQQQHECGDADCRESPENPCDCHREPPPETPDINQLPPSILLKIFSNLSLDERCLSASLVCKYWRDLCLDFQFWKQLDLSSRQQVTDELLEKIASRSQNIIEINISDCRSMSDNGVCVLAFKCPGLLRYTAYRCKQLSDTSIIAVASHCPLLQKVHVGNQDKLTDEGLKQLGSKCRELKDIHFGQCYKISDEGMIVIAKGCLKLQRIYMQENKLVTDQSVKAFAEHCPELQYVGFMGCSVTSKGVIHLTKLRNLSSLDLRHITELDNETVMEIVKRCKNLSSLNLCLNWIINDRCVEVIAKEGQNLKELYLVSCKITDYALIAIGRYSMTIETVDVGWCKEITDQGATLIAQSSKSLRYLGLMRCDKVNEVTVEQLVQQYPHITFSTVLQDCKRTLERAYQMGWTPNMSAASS

Row | effect of a mutation on the interaction | Variant
1 | disrupting interaction strength | Y52C
